According to the RNAGym collection of RNA variant scans (doi:10.1093/molbev/msab373):

B1: Azoarcus group I ribozyme (parent)
chain: GUGCCUUGCGCCGGGAAACCACGCAAGGGAUGGUGUCAAAUUCGGCGAAACCUAAGCGCCCGCCCGGGCGUAUGGCAACGCCGAGCCAAGCUUCGGCGCCUGCGCCGAUGAAGGUGUAGAGACUAGACGGCACCCACCUAAGGCAAACGCUAUGGUGAAGGCAUAGUCCAGGGAGUGGCGAAAGUCACACAAACCGG

Variants of: B1
Test: reverse-splicing fitness (ratio to wild type); higher = more active; in vitro selection; Mg2+ level not given
Procedure, shortened: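 An in vitro group I ribozyme library with randomized positions was T7-transcribed and gel-purified. In triplicate, 10 pmol RNA in EPPS pH 7.5 was reacted with 50 pmoles of a 30-nt RNA substrate for 1 h at 37 °C across several added MgCl2 levels (1–48 mM), then stopped with EDTA. Products were reverse transcribed from a substrate-complementary primer, PCR-amplified and sequenced (HiSeq 4000). Fitness is a variant's read proportion after selection over that before, normalised to wild type.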

In order of falling reverse-splicing fitness:
1. C82G A111C A120G U176C  0.0226
2. C82G A111C A120G A145C C150U C169G U176A  0.0216
3. C82G A111C A120C C169A U176C  0.0194
4. C82G A111C A120G C150U C169G U176C  0.0187
5. C82G A111C A120G A145G C150A U176C  0.0185
6. C82G A111C A120G A145U C150U U176C  0.0179
7. C82G A111C A120G U176A  0.0162
8. C82G A111C A120G A145G C169U U176A  0.0161
9. C82G A111C A120C C169A U176A  0.0156
10. C82G A111C A120C C150A C169U U176C  0.0153
11. C82G A111C A120G A145C C150A C169U U176A  0.0151
12. C82G A111C A120C C150A C169U U176A  0.015
13. C82G A111C A120C C169U  0.0148
14. C82G A111C A120G A145G C169U U176C  0.0145
15. C82G A111C A120G A145G C150G C169A U176A  0.0144
16. C82G A111C A120G C150U C169G U176A  0.0141
17. C82G A111C A120G C150U C169A U176A  0.0141
18. C82G A111C A120C C150G C169A U176C  0.0137
19. C82G A111C A120G A145G C150G C169A U176C  0.0135
20. C82G A111C A120G C150U C169A U176C  0.0135
21. C82G A111C A120G A145C C169G  0.0134
22. C82G A111C A120G A145C C150U C169G U176C  0.0133
23. C82G A111C A120G C169G  0.0132
24. C82G A111C A120G A145U C169G  0.0132
25. C82G A111C A120G C150G C169U U176C  0.0132
26. C82G A111C A120G A145U C150A C169A U176A  0.0128
27. C82G A111C A120G A145C C150G C169U U176C  0.0124
28. C82G A111C A120G A145C C150A C169A U176A  0.0124
29. C82G A111C A120G C150U  0.0121
30. C82G A111C A120G A145C C150A U176A  0.0121
31. C82G A111C A120G A145U C150G C169U U176C  0.0118
32. C82G A111C A120G A145U C150U U176A  0.0115
33. C82G A111C A120G A145C C150A U176C  0.011
34. C82G A111C A120G C169A  0.0107
35. C82G A111C A120G A145U C150A C169A U176C  0.0105
36. C82G A111C A120G A145U C169U  0.0104
37. C82G A111C A120G C150A  0.0103
38. C82G A111C A120G C150G C169A U176C  0.0102
39. C82G A111C A120G A145U C150G C169A U176C  0.0101
40. C82G A111C A120G A145C C150A C169U U176C  0.00999
41. C82G A111C A120G A145U C169A  0.00975
42. C82G A111C A120G A145G C150A U176A  0.00974
43. C82G A111C A120G A145C C169U  0.00967
44. C82G A111C A120G C169U  0.00963
45. C82G A111C A120G A145U C150G C169A U176A  0.00957
46. C82G A111C A120C C150G C169A U176A  0.00918
47. C82G A111C A120G C150G C169A U176A  0.00915
48. C82G A111C A120G A145C C150G C169U U176A  0.00907
49. C82G A111C A120C C169G  0.00886
50. C82G A111C A120G A145C C150U C169G  0.00885
51. C82G A111C A120C C150A C169U U176G  0.0085
52. C82G A111C A120G A145U C150G C169U U176A  0.00847
53. C82G A111C A120G A145C C150U C169A  0.00816
54. C82G A111C A120G A145C C150G C169A U176A  0.00812
55. C82G A111C A120G C150G C169U U176A  0.0081
56. C82G A111C A120G A145C C169A  0.00807
57. C82G A111C A120G A145C C150A C169A U176C  0.00779
58. C82G A111C A120G U176G  0.00753
59. C82G A111C A120G A145C C150G C169A U176C  0.00738
60. C82G A111C A120C C169A U176G  0.0072
61. C82G A111C A120C C169A  0.00716
62. C82G A111C A120G A145G C150A U176G  0.007
63. C82G A111C A120G C150G  0.00691
64. C82G A111C A120G A145C C150U C169U  0.00687
65. C82G A111C A120G C150G C169A U176G  0.00686
66. C82G A111C A120C C150G C169A U176G  0.00619
67. C82G A111C A120G A145U C150U U176G  0.00613
68. C82G A111C A120G C150U C169A U176G  0.00607
69. C82G A111C A120G C150G C169U U176G  0.00589
70. C82G A111C A120G A145U C150A C169A U176G  0.00581
71. C82G A111C A120G A145C C150A C169A U176G  0.00562
72. C82G A111C A120G A145C C150U C169G U176G  0.00541
73. C82G A111C A120G C150U C169G U176G  0.00537
74. C82G A111C A120G A145U C150G C169U U176G  0.00536
75. C82G A111C A120G A145C C150G C169U U176G  0.00513
76. C82G A111C A120G A145C C150G C169A U176G  0.005
77. C82G A111C A120G A145U C150G C169A U176G  0.00496
78. C82G A111C A120G A145C C150A C169U U176G  0.0047
79. C82G A111C A120G A145C C150A U176G  0.00463
80. C82G A111C A120U A145C C150A  0.00458
81. C82G A111C A120G A145G C169U U176G  0.00423
82. C82G A111C A120U A145C C150A C169G U176A  0.00319
83. C82G A111C A120U A145C C150A C169G U176C  0.00286
84. C82G A111C A120U A145C C150A C169G U176G  0.00223
